T1: ApoE4 amino acids 1-164, expressed on yeast (human, UniProt P02649 19-182)
T1 construct: with myc tag, on yeast cells; range counts on the mature protein; also called up to helix 4; not shown: myc tag and yeast surface-display partner
T1 chain: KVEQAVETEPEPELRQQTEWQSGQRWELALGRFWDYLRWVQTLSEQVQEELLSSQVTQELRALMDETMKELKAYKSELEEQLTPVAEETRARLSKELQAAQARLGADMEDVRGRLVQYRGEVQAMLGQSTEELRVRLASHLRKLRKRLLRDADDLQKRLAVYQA

T2: ApoE4 amino acids 1-210, expressed on yeast (human, UniProt P02649 19-228)
T2 construct: with myc tag, on yeast cells; range counts on the mature protein; also called N terminal domain; not shown: myc tag and yeast surface-display partner
T2 chain: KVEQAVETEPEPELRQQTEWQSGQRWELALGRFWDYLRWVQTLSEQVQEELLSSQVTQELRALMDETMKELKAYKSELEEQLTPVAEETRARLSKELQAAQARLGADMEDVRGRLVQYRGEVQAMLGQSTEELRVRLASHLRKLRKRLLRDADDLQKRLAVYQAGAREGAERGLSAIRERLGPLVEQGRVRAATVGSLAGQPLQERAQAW

T3: ApoE4 amino acids 54-164, expressed on yeast (human, UniProt P02649 72-182)
T3 construct: with myc tag, on yeast cells; expression in yeast printed as Low; range counts on the mature protein; also called helix2 + 3 + 4
T3 chain: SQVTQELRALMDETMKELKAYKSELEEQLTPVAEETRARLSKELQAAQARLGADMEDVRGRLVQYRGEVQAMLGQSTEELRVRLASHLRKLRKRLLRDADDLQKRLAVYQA

T4: ApoE4 amino acids 24-164, expressed on yeast (human, UniProt P02649 42-182)
T4 construct: with myc tag, on yeast cells; range counts on the mature protein; also called helix1 + 2 + 3 + 4
T4 chain: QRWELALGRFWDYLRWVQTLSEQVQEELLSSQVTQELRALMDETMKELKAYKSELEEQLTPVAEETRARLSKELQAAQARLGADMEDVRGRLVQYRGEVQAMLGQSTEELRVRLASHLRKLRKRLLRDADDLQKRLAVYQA

B1: HJ151 (antibody, V domains shown)
VH: QVQLQQSGAELVRPGASVTLSCKASGYTFTDYEMHWVKQTPVHGLEWIGVIDPEKGGTAYNQKFKGKAILTADKSSSTAYMDLRSLTSEDSAVYYCLKDSWGQGTTLTVSS
VL: DVLMTQTPLSLPVSLGDQASISCRSSQTIVHSDGNTYLEWYLQKPGQSPKLLIYKVSNRFSGVPDRFSGSGSGTYFTLKISRVEAEDLGVYYCFQGSHVPCTFGGGTKLEIKR
notes: murine monoclonal antibody from hybridoma; also called HJ151B (biotinylated)
B2: HJ156 (antibody, V domains shown)
VH: QVQLQQSGPELVKPGASVKISCKASGYIFTDYYINWVKRRPGQGLEWIGWIFPGSGVSYYNEQFKGKATLTVDKPSNTAYIFLSRLTSEDSAVYFCARYYSSSPFAYWGQGTLVTVSA
VL: B1 VL with T28N, V30I, D33N, Y41F, K44R, K50E, Y75D, C101Y
notes: murine monoclonal antibody from hybridoma; also called HJ156B (biotinylated)
B3: HJ154 (antibody, V domains shown)
VH: QVQLQQPGTEFVMSGASVMLSCKASGYIFTNYWLHWVKQRPGHGLEWIGEIDPSDSYSICNDNFKGKSTLTVDKSSSTAYMQLSSLTSEDSAVYYCAGSLGRVGLAYWGQGTLVTVST
VL: QIVLTQSPAIMSASPGEKVTMSCSASSSVSNMYWYQQKPGSSPKSWIYRTSNLASGVPARFSGSGSGTSYSLTISNMEAEDAATYYCQHYQNYPLTFGAGTKLELKR
notes: murine monoclonal antibody from hybridoma; also called HJ154B (biotinylated)

Numbering of substitutions follows the chain as printed.

The target of the first experiment is T1, ApoE4 amino acids 1-164, expressed on …. The experiment in a line: yeast display of myc-tagged ApoE4 fragment, antibody staining. On the procedure: (§1) Epitope binding of various anti-ApoE antibodies was evaluated multiple ways. Different sequences of human ApoE were expressed on the surface of yeast by yeast display using different plasmids. Different anti-ApoE antibodies were then assessed to determine binding to the different ApoE sequences by immunofluorescence of the yeast cell surface (Table 4). Because none of the anti-ApoE antibodies tested here recognize murine ApoE, the epitope was further narrowed down by comparison of the murine and human ApoE sequences as shown in Tables 4 and 5. DNA constructs containing different regions of ApoE4 with myc tag were transformed into yeast cells. Yeast cells were incubated with HJ15x to detect binding or anti-myc antibody to detect expression.
In the case of B1, the binding result is “binds”.
As for B2, the binding result is given as “binds”.
With B3, the binding result is “binds”.

A further experiment deals with T2, ApoE4 amino acids 1-210, expressed on …. Described as above. The method, then:
as §1
On to B1, for which the binding result was “binds”.
With B2, the binding result is on record as “binds”.
Turning to B3, the binding result was “binds”.

The target of the next experiment is T3, ApoE4 amino acids 54-164, expressed on …. The experiment is described as above. The method, then: as §1
In the case of B1, the binding result was “binds”.
Take B2: the binding result is recorded as “binds”.
In the case of B3, the binding result was “binds”.

In another experiment the target is T4, ApoE4 amino acids 24-164, expressed on …. The experiment is described as above. The method, then: as §1
As for B1, the binding result is on record as “binds”.
Turning to B2, the binding result is recorded as “binds”.
Take B3: the binding result is “binds”.

Another experiment addresses T5, recombinant alipidated human ApoE4 (human, UniProt P02649 19-317).
T5 construct: mature; full length recombinant protein made in E. coli or bought; biotinylated for SPR; position 112 is counted on the mature protein, not on the precursor entry; also called recApoE; non-lipidated ApoE4
In words: ELISA, plate coated with 0.5 ug/ml recombinant apoE4, HRP goat anti-mouse detection, OD450. The method, then:
ELISA plates were coated with 0.5 μg/ml of recombinant apoE2 (square), apoE3 (open circle), or apoE4 (closed circle). Then different concentrations of (A) HJ151, (B) HJ153, (C) HJ154, or (D) HJ156 were loaded on the plates. Horse-radish peroxidase labeled goat anti-mouse secondary antibodies were used to detect binding. […] HJ151 is specific for ApoE4 and HJ156 binds only ApoE3 and ApoE4. FIG. 5E-H are graphs depicting surface plasmon resonance profiles for various antibodies. Anti-ApoE antibodies were serially diluted 3-fold (starting at 100 nM for HJ153 (E), and 1000 nM for HJ151 (F), and […] (G)) for detection of binding to biotinylated-recombinant apoE4 captured on a streptavidin chip. Samples were injected at a flow rate of 30 μl/minute. (H) Apparent KD values of HJ151, HJ153 and HJ156 were calculated based on the SPR experiment.
ELISA plates were coated with 0.5 μg/ml of recombinant apoE2, apoE3, or apoE4. Then different concentrations of HJ151 (FIG. 5A), HJ153 (FIG. 5B), HJ154 (FIG. 5C), or HJ156 (FIG. 5D) were loaded on the plates. Horse-radish peroxidase labeled goat anti-mouse secondary antibodies were used to detect binding. […] HJ151 is specific for ApoE4 and HJ156 binds only ApoE3 and ApoE4. Surface plasmon resonance profiles for various antibodies was also performed.
(In general: ELISA stands for enzyme-linked immunosorbent assay.)
In general, EC50 (read off the curve) refers to the concentration giving half of the maximal effect. For the molecule B1, the “EC50 (read off the curve)” value was roughly 0.5 nM.
With B2, the “EC50 (read off the curve)” value was roughly 1 nM.
In the case of B3, the “EC50 (read off the curve)” value was roughly 0.3 nM.

The target of the next experiment is T5, recombinant alipidated human ApoE4. In words: direct ELISA on coated recombinant alipidated ApoE (0.5 ug/ml). The essentials:
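Antibody dose-response curves were built by HRP-conjugated goat anti-mouse IgG detection of anti-ApoE antibodies bound to blocked plates. The coat was full-length alipidated recombinant ApoE at 0.5 μg/ml, applied overnight, either E. coli-expressed and purified or commercially sourced.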
Target sequence in this assay (P02649 19-317 C130R): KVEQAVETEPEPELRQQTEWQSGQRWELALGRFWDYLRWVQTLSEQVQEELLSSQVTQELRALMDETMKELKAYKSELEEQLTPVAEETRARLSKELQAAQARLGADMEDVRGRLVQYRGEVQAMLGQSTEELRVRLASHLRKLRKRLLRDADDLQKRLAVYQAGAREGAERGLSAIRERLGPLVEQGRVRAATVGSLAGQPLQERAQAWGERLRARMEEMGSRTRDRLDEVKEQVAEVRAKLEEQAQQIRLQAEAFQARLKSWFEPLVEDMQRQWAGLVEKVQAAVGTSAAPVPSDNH
By EC50 is commonly meant the concentration that produces a half-maximal response. For B1, the EC50 was 0.44 nM.
As for B2, the EC50 came out at 0.62 nM.
Turning to B3, the EC50 stood at 0.26 nM.

For the next experiment, the target named is T6, heat-induced aggregates of ApoE4 (human, UniProt P02649 19-317).
T6 construct: mature; aggregated state of the recombinant protein; also called ApoE4 incubated at 40 C for 24 hr; heat-treated ApoE4
In words: ELISA: pellet of heat-aggregated ApoE4 coated at 0.5 ug/ml, antibody titrated, HRP goat anti-mouse IgG, OD650. The method, then: The aggregated ApoE was induced by incubating ApoE at 1 mg/ml concentration at 40° C. for 24 hours. The aggregates then were recovered in the pellet fraction following ultracentrifugation at 186,000 g for 1 hour. For ELISA, the untreated ApoE or heat-induced aggregates of ApoE were coated directly to ELISA plates at 0.5 μg/ml overnight at 4° C. After three washes with PBS, the wells were blocked with 1% BSA-PBS for 1 hour at room temperature with shaking at 500 rpm. The blocked wells were washed once with PBS and subsequently loaded with antibodies at serial concentrations (starting at 100 nM with 5-fold dilutions thereafter). Bound antibodies were detected with HRP-labeled goat anti-mouse IgG (Jackson Immunoresearch) and visualized with TMB substrate at OD₆₅₀ (reaction stopped with BioFX stop solution).
As for B1, the “EC50 (read off the curve)” value is roughly 0.3 nM.
B2: the “EC50 (read off the curve)” value is roughly 0.07 nM.
As for B3, the “EC50 (read off the curve)” value is roughly 0.3 nM.

(Values after patent US20250145697A1 (WASHINGTON UNIVERSITY, published 2025).)
